Data: patent publication US20210206842A1 (NATIONAL RESEARCH COUNCIL OF CANADA, published 2021)

Key:
[1] = biological target: T1, human Nav1.7 polypeptide (human, UniProt Q15858 1-1988); assay: cell-based or functional assay
[2] = biological target: T2, VHH FC5; assay: SPR, mAb 1G5 and FC5, 25 C
T2 construct: put together from its FR and CDR entries; also called FC5-VHH; FC5 control

[3] = biological target: T3, FC5DIE3IR recombinant protein; assay: SPR, mAb 1G5 and FC5DIE3IR, 25 C
T3 construct: Made in CHO-3E7 cells; also called FC5DIE31R; FC5DIE3R

[4] = biological target: T2, VHH FC5; assay: ELISA, hybridoma supernatant on coated purified FC5-VHH
Experimental: (§1) Screening. Hybridoma supernatants were screened by ELISA to detect specific binders. To this end, 96-well half-area plates (Costar #3690) were coated with 25 μl of FC5DIE3IR or FC5-VHH or FC5-hFc-1X0 at 5 μg/ml in PBS and incubated overnight at 4° C. Microplates were washed 3 times with PBS, blocked with PBS-BSA 1%, and 25 μl of hybridoma supernatants were added and incubated at 37° C., 5% CO₂ for 2 hours. […] After 4 washes with PBS-Tween 20 0.05%, 25 μl of a 1 mg/ml pNPP substrate solution was added and further incubated for one hour at 37° C.

[5] = biological target: T3, FC5DIE3IR recombinant protein; assay: ELISA, hybridoma supernatant on coated purified FC5DIE3IR
Experimental: as §1

[6] = biological target: T1, human Nav1.7 polypeptide; assay: cell ELISA, hybridoma supernatant on live CHO cells expressing human Nav1.7, duplicate 1
Experimental: (§2) Cell-ELISA. Sterile 96-well plates (Costar #3595) were pre-treated with 50 μl/well of branched polyethyleneimine (PEI, Sigma Cat #408727) at 25 μg/ml in PBS for 30 min at room temperature. PEI was removed and CHO-3E7 or hNAᵥ1.7-CHO (ChanTest cat #CT4003) were seeded at 6×10⁵ cells per well in FreeStyle F17 Expression Medium (Gibco Cat #A1383501) and incubated overnight at 37° C., 5% CO₂. Microplates were blocked with Starting block (Thermofisher Cat #37538) for 30 min at room temperature, and 50 μl of hybridoma supernatants were added and incubated at 4° C. for 3 h. […] After 10 washes with PBS, 50 μl of TMB substrate solution (Pierce Cat #34021) was added and further incubated for 60 min at room temperature.

[7] = biological target: T1, human Nav1.7 polypeptide; assay: cell ELISA, hybridoma supernatant on live CHO cells expressing human Nav1.7, duplicate 2
Experimental: as §2

[8] = biological target: T3, FC5DIE3IR recombinant protein; assay: apparent KD (Kdapp), ELISA dose curve of purified mAb on coated FC5DIE3IR; 1G5 clone (IgG1), ELISA apparent KD
Experimental: as §1
(§3) Evaluation of apparent affinity in ELISA. Purified antibodies were assessed for their binding activity by ELISA in a dose-dependent binding curve. Serial 1/3 dilutions of purified mAbs starting at 120 nM were applied onto wells and ELISA was performed as described above (screening section). The data were analyzed with GraphPad Prism software using one-site specific binding-with Hill slope non-linear regression curve fit model to determine Bₘₐₓ (maximum specific binding) and Kdₐₚₚ (concentration needed to achieve a half-maximum binding at equilibrium) for each mAb tested.

[9] = biological target: T3, FC5DIE3IR recombinant protein; assay: ELISA on coated FC5DIE3IR, serial dilutions of purified mAb; fit One site - Specific binding with Hill slope
Experimental: as §1, §3

[10] = biological target: T3, FC5DIE3IR recombinant protein; assay: ELISA on coated FC5DIE3IR, serial dilutions of purified mAb, OD 405 nm; fit One site - Specific binding with Hill slope; apparent Kd in the unit of the concentration axis (nM), the table itself prints no unit
Experimental: as §1, §3

[11] = biological target: T1, human Nav1.7 polypeptide; assay: cell-based or functional assay; remark: listed apart in the source
[12] = biological target: T3, FC5DIE3IR recombinant protein; assay: ELISA dose curve of purified mAb on coated FC5DIE3IR
Experimental: as §1, §3

[13] = biological target: T4, peptide #2a (20 aa) (human); assay: ELISA on coated P2a, mAb at the dilutions 1:1000, 1:5000 and 1:10000, Abs 450nm
T4 construct: Custom-synthesized (Biomatik); also called pep #2a; P2a
T4 peptide: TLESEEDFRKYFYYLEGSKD
Experimental: (§4) The peptides were custom-synthesized (Biomatik) and tested for antibody binding by ELISA. […] The wells were blocked with 1% BSA in TBS-T for 30 min and then incubated with 1:1000 dilution of anti-hNaᵥ1.7 mAb at room temperature (RT) for one hr.

[14] = biological target: T5, peptide #2 (30 aa) (human); assay: ELISA on coated peptide or FC5DIE3IR, mAb detected with HRP anti-mouse Fc, Abs 450nm
T5 construct: Custom-synthesized (Biomatik); also called pep #2; P2
T5 peptide: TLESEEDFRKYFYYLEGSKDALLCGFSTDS
Experimental: as §4

[15] = biological target: T6, peptide #3 (30 aa) (human); assay: as above
T6 construct: Custom-synthesized (Biomatik); also called pep #3; P3
T6 sequence (peptide, as listed by the source): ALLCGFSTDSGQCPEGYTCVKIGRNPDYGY
Experimental: as §4

[16] = biological target: T7, peptide #40a (40 aa) (human); assay: as above
T7 construct: Custom-synthesized (Biomatik); also called pep #40a; P40a
T7 peptide: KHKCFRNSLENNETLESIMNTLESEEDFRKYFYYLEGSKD
Experimental: as §4

[17] = biological target: T3, FC5DIE3IR recombinant protein; assay: apparent KD (Kdapp), ELISA dose curve of purified mAb on coated FC5DIE3IR; 3A8 clone (IgG2a), ELISA apparent KD
Experimental: as §1, §3

[18] = biological target: T3, FC5DIE3IR recombinant protein; assay: SPR (Biacore T200), single cycle kinetics, Fc-captured mAb, FC5DIE3IR flowed (320 nM-20 nM), 1:1 model, 25 C
Experimental: (§5) HBS-EP running buffer used for SPR experiments. […] Test binding experiments of FC5 control and FC5DIE3IR involved flowing 1 μM concentrations of SEC-pure material over the mAb surface at a flow rate of 30 μl/min for 5 min. Surfaces could be regenerated using 10 mM glycine, pH 1.7, with a 120 sec pulse at 20 μl/min. All SPR experiments were evaluated with Biacore T200 Software v 3.0. […] Regeneration conditions were the same as above. Data were fit to a 1:1 binding model and analyzed using the Biacore T200 Software v3.0.

[19] = biological target: T3, FC5DIE3IR recombinant protein; assay: SPR (Biacore T200), ligand 3A8 captured by anti-mouse IgG, FC5DIE3IR flowed at 1 µM, 25 °C, 1:1 binding model
Experimental: as §5

[20] = biological target: T3, FC5DIE3IR recombinant protein; assay: SPR single cycle kinetics, ligand 3A8 Fc-captured, FC5DIE3IR flowed in five rising concentrations, 1:1 binding model
Experimental: as §5

[21] = biological target: T2, VHH FC5; assay: SPR (Biacore T200), ligand 3A8 captured by anti-mouse IgG, VHH FC5 flowed at 1 µM, 25 °C, 1:1 binding model; the fit is printed under a flat sensorgram and the filing says that 3A8 did not bind FC5
Experimental: as §5

[22] = biological target: T2, VHH FC5; assay: SPR (Biacore T200), ligand 3A8 captured by anti-mouse IgG, VHH FC5 flowed at 1 µM, 25 °C, 1:1 binding model; the label reads KD: without a unit, M follows from kd/ka; the fit is printed under a flat sensorgram and the filing says that 3A8 did not bind FC5
Experimental: as §5

T2 sequence (VHH, as listed by the source): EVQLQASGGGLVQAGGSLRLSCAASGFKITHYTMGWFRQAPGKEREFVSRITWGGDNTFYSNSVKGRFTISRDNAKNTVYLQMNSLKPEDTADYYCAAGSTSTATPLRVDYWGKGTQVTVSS

B1: mAb 1G5 (antibody, V domains shown)
VH: QVQLQQPGAELVKPGASVKLSCKASGYTFTSYWINWVKQRPGQGLEWIGNIYPGNSNTNYNEKFKSKATLTVDKSSSTAYMQLSSLTSEDSAVYYCARRYYYDYDDAMDYWGQGTSVTVSS
VL: DIVLTQSPASLAVSLGQRATISCRASESVDSYGNGFMHWYQQKPGQPPKLLIYRASNLESGIPARVSGSGSRTDFTLTINPVEADDVATYYCQQSNEDPWTFGGGTKLEIK
notes: also called negative control
- Reduction currents (%) at 1 µM [1]: 0.77%
- Kd [2]: 58.8 nM
- koff [2]: 0.017 s⁻¹
- kon [2]: 289000 M⁻¹ s⁻¹
- Kd [3]: 186 nM
- koff [3]: 0.0136 s⁻¹
- kon [3]: 72900 M⁻¹ s⁻¹
- ELISA signal (OD 405 nm) [4]: 0.096 OD 405 nm
- ELISA signal (OD 405 nm) [5]: 1.14 OD 405 nm
- cell ELISA signal (OD 450 nm) [6]: 0.172 OD 450 nm
- cell ELISA signal (OD 450 nm) [7]: 0.225 OD 450 nm
- Kd [8]: 4.8 nM
- Bmax [9]: 0.635 OD405 nm
- Kd [10]: 5.04 nM

B2: anti-hNav1.7 mAb 3A8 (antibody, V domains shown)
VH: QVQLQQPGAELVKPGASVKLSCKASGYTFTNYWMHWVKQRPGQGLEWIGEINPSNGRANYNEKFKSKATLTVDKSSSTAYMQLSSLTSEDSAVYYCARSPYGYYDYWGQGTTLTVSS
VL: DVLMTQTPLSLPVSLGDQASISCRSSQSLLHSNGNTYFHWYLQKPGQSPKLLIYKVSNRFFGVPDRFSGSGSGTDFTLKISRVEAEDLGVYFCSQITHVPLTFGAGTKLELK
notes: also called F233-3A8
- concentration response relationship (IC50), hNav1.7 currents, whole-cell patch clamp, hNav1.7-HEK293 cells [11]: 900 nM
- Concentration response relationship (IC50), hNav1.7 currents, whole-cell patch clamp, hNav1.7-HEK293 cells, resting/closed state [1]: 850 nM
- Efficacy (degree of maximum inhibition) % [1]: 16%
- Reduction currents (%) at 0.5 µM [1]: 3.6%
- Reduction currents (%) at 1 µM [1]: 8.2%
- Reduction currents (%) at 2 µM [1]: 16%
- Reduction currents (%) at 3 µM [1]: 15.4%
- Time constant of the block of the hNav1.7 currents (1 µM) [1]: 184 s
- Time constant of the block of the hNav1.7 currents (2 µM) [1]: 105 s
- fold lower apparent KD than the 1G5 clone [12]: ~2.5 fold
- ELISA signal (OD 405 nm) [4]: 0.029 OD 405 nm
- ELISA signal (OD 405 nm) [5]: 0.995 OD 405 nm
- binding result [13]: binds
- cell ELISA signal (OD 450 nm) [6]: 0.102 OD 450 nm
- cell ELISA signal (OD 450 nm) [7]: 0.183 OD 450 nm
- binding result [14]: binds
- binding result [15]: no binding
- binding result [16]: binds
- Kd [17]: 1.9 nM
- Kd [18]: 36.7 nM
- koff [18]: 0.000259 s⁻¹
- kon [18]: 7050 M⁻¹ s⁻¹
- Bmax [9]: 2.15 OD405 nm
- Kd [19]: 17.1 nM
- koff [19]: 4.52e-05 s⁻¹
- kon [19]: 2640 M⁻¹ s⁻¹
- Kd [20]: 7.59 nM
- koff [20]: 3.15e-05 s⁻¹
- kon [20]: 4160 M⁻¹ s⁻¹
- koff [21]: 0.0138 s⁻¹
- kon [21]: 28700 M⁻¹ s⁻¹
- Kd [10]: 1.84 nM
- Kd [22]: 482 nM
